In this assay the target is SARS-CoV-2 spike protein (wild type) (SARS-CoV-2, ancestral (wild type, …, UniProt P0DTC2)). In words: lateral flow strip assay.

B1: REGN10933 (receptor binding domain binding antibody) (antibody, V domains shown)
VH: QVQLVESGGGLVKPGGSLRLSCAASGFTFSDYYMSWIRQAPGKGLEWVSYITYSGSTIYYADSVKGRFTISRDNAKSSLYLQMNSLRAEDTAVYYCARDRGTTMVPFDYWGQGTLVTVSS
VL: DIQMTQSPSSLSASVGDRVTITCQASQDITNYLNWYQQKPGKAPKLLIYAASNLETGVPSRFSGSGSGTDFTFTISGLQPEDIATYYCQQYDNLPLTFGGGTKVEIK
As for B1, the binding result is reported as “binds”.

Source of the values: article PMC8796303 (ACS Central Science, 2021).
